The supplement of paper PMC10065799, “High-throughput profiling of sequence recognition by tyrosine kinases and SH2 domains using bacterial peptide display” (eLife, 2023)

What was measured:
Grb2 SH2 = Grb2 SH2 (UniProt P62993); assay: SH2 binding enrichment of the phosphorylated peptide, bacterial display (enrichment ratio); higher = better substrate or ligand; peptides without Tyr show the background
c-Src SH2 = assay: as above
SHP2-C SH2 = assay: as above
Hck = Hck (UniProt P08631); assay: phosphorylation enrichment, bacterial display (enrichment ratio); higher = better substrate or ligand; peptides without Tyr show the background
c-Src = assay: as above
Fyn = Fyn (UniProt P06241); assay: as above
c-Abl (mouse) = assay: as above
Jak2 = Jak2 (UniProt O60674); assay: as above
Fes = Fes (UniProt P07332); assay: as above
EPHB1 = EPHB1 (UniProt P54762); assay: as above
FGFR3 = FGFR3 (UniProt P22607); assay: as above
EPHB2 = EPHB2 (UniProt P29323); assay: as above
FGFR1 = FGFR1 (UniProt P11362); assay: as above
MERTK = MERTK (UniProt Q12866); assay: as above
AncSZ = assay: as above
Fer (mouse) = assay: as above
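Throughout, for SH2 binding enrichment of the phosphorylated peptide, bacterial display: peptide library displayed on the E. coli surface as eCPX fusions, selected cells deep-sequenced, score is each peptide's frequency after selection divided by its frequency in the input.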
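Throughout, for phosphorylation enrichment, bacterial display: 11-residue human phosphosite peptides and single-mutation variants displayed on the E. coli surface, counted by deep sequencing, each peptide's frequency after selection divided by its frequency in the unselected input library; frequency after pTyr selection over input frequency; kinase dosed for 20-30% of maximal phosphorylation in three min.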

Chain of FGFR1 (P11362 whole entry, looked up): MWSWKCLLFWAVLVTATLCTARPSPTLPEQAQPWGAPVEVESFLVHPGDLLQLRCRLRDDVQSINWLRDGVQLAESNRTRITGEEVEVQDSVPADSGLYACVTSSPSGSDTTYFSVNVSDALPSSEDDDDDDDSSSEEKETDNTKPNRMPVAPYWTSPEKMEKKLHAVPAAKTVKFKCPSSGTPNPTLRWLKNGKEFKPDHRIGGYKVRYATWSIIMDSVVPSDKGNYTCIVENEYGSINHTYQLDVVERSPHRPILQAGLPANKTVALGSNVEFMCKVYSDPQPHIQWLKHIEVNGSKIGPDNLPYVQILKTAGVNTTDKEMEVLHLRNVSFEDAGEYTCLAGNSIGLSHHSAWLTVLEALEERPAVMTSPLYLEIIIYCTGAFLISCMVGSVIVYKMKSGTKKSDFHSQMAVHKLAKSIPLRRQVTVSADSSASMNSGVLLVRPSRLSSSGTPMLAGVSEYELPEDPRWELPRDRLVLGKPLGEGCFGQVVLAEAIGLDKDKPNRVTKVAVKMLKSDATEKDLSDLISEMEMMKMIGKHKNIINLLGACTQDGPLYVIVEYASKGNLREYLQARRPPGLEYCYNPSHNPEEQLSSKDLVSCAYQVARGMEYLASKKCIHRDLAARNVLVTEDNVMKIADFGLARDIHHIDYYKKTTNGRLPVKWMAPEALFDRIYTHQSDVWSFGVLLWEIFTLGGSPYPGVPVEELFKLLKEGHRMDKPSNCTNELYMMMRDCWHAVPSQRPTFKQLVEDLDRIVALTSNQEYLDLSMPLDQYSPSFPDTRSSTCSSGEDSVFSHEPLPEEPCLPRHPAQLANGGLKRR
Chain of EPHB2 (P29323 whole entry, looked up): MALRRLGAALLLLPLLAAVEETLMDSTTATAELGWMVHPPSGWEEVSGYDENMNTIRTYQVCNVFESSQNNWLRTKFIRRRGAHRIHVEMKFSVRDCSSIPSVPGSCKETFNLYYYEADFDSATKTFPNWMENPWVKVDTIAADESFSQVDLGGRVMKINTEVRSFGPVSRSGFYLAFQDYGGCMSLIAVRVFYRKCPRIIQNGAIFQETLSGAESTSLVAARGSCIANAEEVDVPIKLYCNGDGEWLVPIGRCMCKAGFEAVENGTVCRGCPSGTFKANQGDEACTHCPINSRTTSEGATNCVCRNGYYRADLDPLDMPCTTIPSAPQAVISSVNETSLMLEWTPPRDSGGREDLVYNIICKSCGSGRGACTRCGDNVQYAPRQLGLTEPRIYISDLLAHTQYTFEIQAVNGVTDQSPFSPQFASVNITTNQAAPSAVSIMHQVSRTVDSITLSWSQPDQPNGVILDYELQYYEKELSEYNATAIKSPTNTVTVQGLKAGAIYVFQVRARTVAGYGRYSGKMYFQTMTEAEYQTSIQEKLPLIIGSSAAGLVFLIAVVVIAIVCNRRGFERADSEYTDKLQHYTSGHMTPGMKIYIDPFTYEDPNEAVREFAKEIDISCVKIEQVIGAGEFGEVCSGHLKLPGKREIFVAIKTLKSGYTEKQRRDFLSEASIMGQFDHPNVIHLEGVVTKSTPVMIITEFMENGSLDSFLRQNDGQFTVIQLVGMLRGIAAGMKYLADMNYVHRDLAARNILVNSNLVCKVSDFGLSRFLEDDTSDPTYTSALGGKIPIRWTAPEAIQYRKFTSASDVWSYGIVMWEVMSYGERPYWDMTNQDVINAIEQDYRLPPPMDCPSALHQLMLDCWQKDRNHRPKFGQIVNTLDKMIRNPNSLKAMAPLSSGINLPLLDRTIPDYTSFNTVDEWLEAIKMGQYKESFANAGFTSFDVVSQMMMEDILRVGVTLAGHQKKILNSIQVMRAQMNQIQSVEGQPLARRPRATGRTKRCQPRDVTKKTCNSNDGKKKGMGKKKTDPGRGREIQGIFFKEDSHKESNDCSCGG
Chain of Grb2 SH2 (P62993 whole entry, looked up): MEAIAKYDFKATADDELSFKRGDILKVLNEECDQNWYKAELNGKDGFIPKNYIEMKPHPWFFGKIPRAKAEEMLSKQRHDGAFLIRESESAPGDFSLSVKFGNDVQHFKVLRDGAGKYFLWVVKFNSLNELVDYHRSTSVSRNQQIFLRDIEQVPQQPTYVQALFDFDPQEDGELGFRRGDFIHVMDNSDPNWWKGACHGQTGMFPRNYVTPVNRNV
Chain of MERTK (Q12866 whole entry, looked up): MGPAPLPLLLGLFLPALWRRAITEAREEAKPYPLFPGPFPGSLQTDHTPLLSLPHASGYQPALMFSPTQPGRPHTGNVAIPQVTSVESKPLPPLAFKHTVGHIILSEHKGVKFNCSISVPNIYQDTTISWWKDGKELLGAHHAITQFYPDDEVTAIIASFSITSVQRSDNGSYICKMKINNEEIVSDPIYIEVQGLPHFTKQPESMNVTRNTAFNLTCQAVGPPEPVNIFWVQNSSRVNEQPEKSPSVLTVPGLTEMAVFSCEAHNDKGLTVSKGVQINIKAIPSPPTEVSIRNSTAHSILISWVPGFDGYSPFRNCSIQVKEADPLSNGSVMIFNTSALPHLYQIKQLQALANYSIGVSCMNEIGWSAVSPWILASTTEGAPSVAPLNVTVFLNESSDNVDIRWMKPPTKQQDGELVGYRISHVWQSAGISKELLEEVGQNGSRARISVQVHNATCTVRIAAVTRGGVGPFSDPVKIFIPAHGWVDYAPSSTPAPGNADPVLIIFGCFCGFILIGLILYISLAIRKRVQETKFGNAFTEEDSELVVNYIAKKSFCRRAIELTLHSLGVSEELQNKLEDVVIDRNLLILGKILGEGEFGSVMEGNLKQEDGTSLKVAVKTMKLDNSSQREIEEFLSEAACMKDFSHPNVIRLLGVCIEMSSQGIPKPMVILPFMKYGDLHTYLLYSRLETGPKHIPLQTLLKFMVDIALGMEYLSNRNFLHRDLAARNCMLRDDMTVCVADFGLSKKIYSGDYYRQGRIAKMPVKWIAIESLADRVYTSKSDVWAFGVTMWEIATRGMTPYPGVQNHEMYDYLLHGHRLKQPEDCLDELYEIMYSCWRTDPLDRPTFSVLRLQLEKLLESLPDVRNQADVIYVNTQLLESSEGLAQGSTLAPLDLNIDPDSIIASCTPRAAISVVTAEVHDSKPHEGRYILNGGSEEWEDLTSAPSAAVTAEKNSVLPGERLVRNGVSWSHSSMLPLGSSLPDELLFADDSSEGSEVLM
Chain of Fes (P07332 whole entry, looked up): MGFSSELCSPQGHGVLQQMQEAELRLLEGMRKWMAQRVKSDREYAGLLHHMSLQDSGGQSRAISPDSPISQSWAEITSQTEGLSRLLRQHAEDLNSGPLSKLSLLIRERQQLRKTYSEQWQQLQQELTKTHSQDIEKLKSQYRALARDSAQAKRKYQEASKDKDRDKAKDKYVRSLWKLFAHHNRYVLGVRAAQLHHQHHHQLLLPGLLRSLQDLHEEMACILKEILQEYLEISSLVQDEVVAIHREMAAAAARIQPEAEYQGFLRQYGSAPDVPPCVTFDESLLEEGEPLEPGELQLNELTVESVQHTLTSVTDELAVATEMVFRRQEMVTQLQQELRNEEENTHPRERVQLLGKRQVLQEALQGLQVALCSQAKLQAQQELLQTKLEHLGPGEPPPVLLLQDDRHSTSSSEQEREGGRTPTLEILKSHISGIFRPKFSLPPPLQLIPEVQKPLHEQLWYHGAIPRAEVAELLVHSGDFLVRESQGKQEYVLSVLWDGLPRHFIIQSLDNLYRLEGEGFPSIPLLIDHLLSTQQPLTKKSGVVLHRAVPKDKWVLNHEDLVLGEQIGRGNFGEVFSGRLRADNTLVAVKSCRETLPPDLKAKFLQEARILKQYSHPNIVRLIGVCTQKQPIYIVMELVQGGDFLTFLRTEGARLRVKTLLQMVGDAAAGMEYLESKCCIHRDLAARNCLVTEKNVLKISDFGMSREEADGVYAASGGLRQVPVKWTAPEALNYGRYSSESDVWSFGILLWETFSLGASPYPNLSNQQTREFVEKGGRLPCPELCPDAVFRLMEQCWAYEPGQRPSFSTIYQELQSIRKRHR
Chain of FGFR3 (P22607 whole entry, looked up): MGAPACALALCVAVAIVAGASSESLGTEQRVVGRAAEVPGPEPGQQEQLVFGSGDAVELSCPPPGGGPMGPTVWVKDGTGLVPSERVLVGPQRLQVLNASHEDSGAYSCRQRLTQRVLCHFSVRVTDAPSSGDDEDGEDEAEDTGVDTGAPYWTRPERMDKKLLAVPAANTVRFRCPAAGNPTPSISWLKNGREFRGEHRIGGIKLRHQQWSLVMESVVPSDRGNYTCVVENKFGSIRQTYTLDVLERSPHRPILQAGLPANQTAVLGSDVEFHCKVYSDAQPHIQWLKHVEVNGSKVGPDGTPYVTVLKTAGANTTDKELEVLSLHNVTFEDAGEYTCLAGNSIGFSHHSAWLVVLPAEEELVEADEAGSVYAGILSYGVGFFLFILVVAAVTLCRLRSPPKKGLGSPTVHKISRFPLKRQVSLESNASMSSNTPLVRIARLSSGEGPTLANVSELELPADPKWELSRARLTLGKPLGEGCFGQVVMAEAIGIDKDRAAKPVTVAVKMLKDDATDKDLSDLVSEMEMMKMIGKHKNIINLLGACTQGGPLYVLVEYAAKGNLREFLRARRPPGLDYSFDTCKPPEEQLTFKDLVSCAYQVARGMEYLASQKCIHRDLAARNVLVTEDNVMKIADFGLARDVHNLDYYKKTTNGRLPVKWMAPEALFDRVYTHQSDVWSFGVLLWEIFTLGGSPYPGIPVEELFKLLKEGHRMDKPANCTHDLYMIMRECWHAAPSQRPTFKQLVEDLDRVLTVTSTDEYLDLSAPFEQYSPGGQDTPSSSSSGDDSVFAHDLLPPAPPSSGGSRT

Row | Sequence | SH2 binding enrichment (Grb2 SH2) | SH2 binding enrichment (c-Src SH2) | SH2 binding enrichment (SHP2-C SH2) | phosphorylation enrichment (Hck) | phosphorylation enrichment (c-Src) | phosphorylation enrichment (Fyn) | phosphorylation enrichment (c-Abl (mouse)) | phosphorylation enrichment (Jak2) | phosphorylation enrichment (Fes) | phosphorylation enrichment (EPHB1) | phosphorylation enrichment (FGFR3) | phosphorylation enrichment (EPHB2) | phosphorylation enrichment (FGFR1) | phosphorylation enrichment (MERTK) | phosphorylation enrichment (AncSZ) | phosphorylation enrichment (Fer (mouse))
1 | DFLSSYSAVNQ [OAT_Y85] | 1.1 | 2.01 | 3.8 | 0.531 | 0.61 | 0.427 | 0.703 | 0.997 | 0.947 | 0.658 | 0.698 | 0.493 | 0.433 | 0.558 | 1.04 | 1.17
2 | DFTEAYNSKIK [CLK1_Y305_P307S_YF] | 0.945 | 0.45 | 0.613 | 0.526 | 0.56 | 0.512 | 0.795 | 0.908 | 1.02 | 0.721 | 0.65 | 0.622 | 0.592 | 0.464 | 0.899 | 0.465
3 | DGKFSYLKVGH [GRM3_Y480_G475D_YF] | 0.838 | 0.421 | 0.671 | 0.337 | 0.411 | 0.33 | 0.575 | 0.599 | 1.16 | 0.444 | 0.478 | 0.388 | 0.467 | 0.505 | 0.678 | 0.338
4 | DGLASYLDKVR [KRT12_Y139_R135G] | 0.872 | 0.437 | 0.737 | 0.375 | 0.414 | 0.422 | 0.685 | 0.631 | 0.757 | 0.41 | 0.51 | 0.414 | 0.363 | 0.415 | 0.664 | 0.365
5 | DGQVNYEEFVQ [CALM1_Y139] | 0.784 | 0.399 | 0.493 | 0.626 | 0.576 | 0.505 | 0.957 | 1.2 | 1.42 | 1.62 | 0.841 | 1.28 | 0.608 | 0.487 | 1.33 | 0.659
6 | DGTESYLTVSS [PLK1_Y462] | 0.628 | 0.475 | 0.713 | 0.443 | 0.465 | 0.453 | 0.687 | 0.845 | 0.954 | 0.447 | 0.59 | 0.467 | 0.454 | 0.387 | 0.89 | 0.487
7 | DISEPYEVFRI [IRF8_Y107_K108E_YF] | 1.03 | 0.663 | 0.916 | 1.81 | 4.48 | 1.91 | 1.09 | 1.09 | 1.15 | 0.665 | 0.725 | 0.559 | 0.661 | 0.572 | 2.21 | 12.3
8 | DISEPYEVYRI [IRF8_Y107_K108E] | 0.76 | 0.638 | 0.401 | 1.28 | 3.97 | 1.55 | 0.862 | 0.912 | 1.05 | 0.425 | 0.624 | 0.634 | 0.736 | 0.522 | 2.01 | 9.63
9 | DLDATYRPMFS [JUP_Y701_M697L_YF] | 0.72 | 0.5 | 0.713 | 0.686 | 0.542 | 0.522 | 0.662 | 0.673 | 0.85 | 0.636 | 0.557 | 0.557 | 0.491 | 0.33 | 0.722 | 0.489
10 | DLVRPYVHKIL [SF3B1_Y570] | 0.849 | 0.679 | 1.16 | 0.449 | 0.43 | 0.703 | 0.539 | 0.55 | 0.743 | 0.519 | 0.566 | 0.586 | 0.466 | 0.504 | 0.636 | 0.534
11 | DLVSEYQQYQD [TUBB3_Y422] | 0.989 | 0.597 | 0.642 | 0.656 | 0.677 | 0.706 | 1.04 | 1.42 | 1.37 | 0.721 | 0.858 | 0.704 | 0.523 | 0.488 | 1.57 | 0.709
12 | DPADRYLTEQF [CDKL5_Y286_C291Y_YF] | 0.889 | 0.571 | 0.618 | 0.558 | 0.594 | 0.527 | 0.733 | 1.11 | 1.35 | 0.514 | 0.645 | 0.747 | 0.591 | 0.6 | 1.11 | 0.513
13 | DPASAYADEVK [ETNPPL_Y189_S185P] | 0.941 | 0.671 | 0.462 | 0.557 | 0.416 | 0.492 | 0.794 | 1.06 | 1.2 | 0.628 | 0.724 | 0.469 | 0.473 | 0.435 | 1.06 | 0.495
14 | DPHQQYFIAMD [TBX15_Y159_YF] | 0.917 | 0.655 | 0.71 | 0.544 | 0.637 | 0.551 | 0.792 | 1.06 | 1.1 | 0.504 | 1.19 | 0.577 | 1.02 | 0.511 | 0.93 | 0.396
15 | DPLLTYQFPPK [LMNA_Y481_R482Q] | 1.04 | 0.546 | 0.657 | 0.986 | 1.54 | 1.24 | 0.549 | 0.566 | 0.773 | 0.597 | 1.17 | 1.27 | 1.69 | 0.796 | 1.25 | 0.498
